{"source": "paper PMC9482650", "about": "“Quantitative fragmentomics allow affinity mapping of interactomes” (Nature Communications, 2022)", "data": [{"molecular_target": "T1, DFNB31_1, Q9P202", "T1 sequence (Q9P202 135-233, limits assumed, looked up)": "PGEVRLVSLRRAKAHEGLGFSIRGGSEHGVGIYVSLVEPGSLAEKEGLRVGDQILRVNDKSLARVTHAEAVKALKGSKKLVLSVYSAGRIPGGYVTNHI", "assay": "holdup assay", "set-up": "key: below the threshold = too weak to quantify, mostly under pKd 3.1 to 4", "conditions": "plain residues with an end cap or a label only (N-terminal biotin on a linker: ado-ado)", "values": [{"binder": "QSLNRMEYIV", "note": "[JAG1, P78504]", "pKd": "below the threshold"}]}, {"molecular_target": "DLG1_3, Q12959", "sequence (Q12959 457-571)": "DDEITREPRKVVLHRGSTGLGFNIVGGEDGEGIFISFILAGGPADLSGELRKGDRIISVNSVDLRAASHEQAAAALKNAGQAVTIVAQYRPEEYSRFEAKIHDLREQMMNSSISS", "assay": "holdup assay", "set-up": "key: below the threshold = too weak to quantify, mostly under pKd 3.1 to 4", "conditions": "plain residues with an end cap or a label only (N-terminal biotin on a linker: ado-ado)", "values": [{"binder": "QSLNRMEYIV", "note": "[JAG1, P78504]", "pKd": "below the threshold"}]}, {"molecular_target": "T2, DLG3_1, Q92796", "T2 sequence (Q92796 125-227, limits assumed, looked up)": "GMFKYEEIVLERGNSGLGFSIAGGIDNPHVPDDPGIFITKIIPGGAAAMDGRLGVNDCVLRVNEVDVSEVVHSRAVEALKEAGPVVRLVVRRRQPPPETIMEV", "assay": "holdup assay", "set-up": "key: below the threshold = too weak to quantify, mostly under pKd 3.1 to 4", "conditions": "plain residues with an end cap or a label only (N-terminal biotin on a linker: ado-ado)", "values": [{"binder": "QSLNRMEYIV", "note": "[JAG1, P78504]", "pKd": "below the threshold"}]}, {"molecular_target": "T3, DLG3_2, Q92796", "T3 sequence (Q92796 221-321, limits assumed, looked up)": "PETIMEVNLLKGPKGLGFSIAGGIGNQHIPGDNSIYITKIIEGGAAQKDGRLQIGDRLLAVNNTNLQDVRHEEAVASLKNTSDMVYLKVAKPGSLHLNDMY", "assay": "holdup assay", "set-up": "key: below the threshold = too weak to quantify, mostly under pKd 3.1 to 4", "conditions": "plain residues with an end cap or a label only (N-terminal biotin on a linker: ado-ado)", "values": [{"binder": "QSLNRMEYIV", "note": "[JAG1, P78504]", "pKd": 4.45}]}, {"molecular_target": "DLG4_1, P78352", "sequence (P78352 62-152)": "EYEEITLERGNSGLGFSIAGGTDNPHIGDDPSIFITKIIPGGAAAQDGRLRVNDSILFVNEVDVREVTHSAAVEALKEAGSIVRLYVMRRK", "assay": "holdup assay", "set-up": "key: below the threshold = too weak to quantify, mostly under pKd 3.1 to 4", "conditions": "plain residues with an end cap or a label only (N-terminal biotin on a linker: ado-ado)", "values": [{"binder": "QSLNRMEYIV", "note": "[JAG1, P78504]", "pKd": "below the threshold"}]}, {"molecular_target": "GORASP2, Q9H8Y8", "assay": "holdup assay", "set-up": "key: below the threshold = too weak to quantify, mostly under pKd 3.1 to 4", "conditions": "plain residues with an end cap or a label only (N-terminal biotin on a linker: ado-ado)", "values": [{"binder": "QSLNRMEYIV", "note": "[JAG1, P78504]", "pKd": 5.14}]}, {"molecular_target": "T4, GRIP1_2, Q9Y3R0", "T4 sequence (Q9Y3R0 145-248, limits assumed, looked up)": "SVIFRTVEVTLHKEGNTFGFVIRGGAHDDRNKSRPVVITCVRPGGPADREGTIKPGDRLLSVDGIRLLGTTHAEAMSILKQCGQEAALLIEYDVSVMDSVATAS", "assay": "holdup assay", "set-up": "key: below the threshold = too weak to quantify, mostly under pKd 3.1 to 4", "conditions": "plain residues with an end cap or a label only (N-terminal biotin on a linker: ado-ado)", "values": [{"binder": "QSLNRMEYIV", "note": "[JAG1, P78504]", "pKd": "below the threshold"}]}, {"molecular_target": "T5, GRIP1_4, Q9Y3R0", "T5 sequence (Q9Y3R0 467-571, limits assumed, looked up)": "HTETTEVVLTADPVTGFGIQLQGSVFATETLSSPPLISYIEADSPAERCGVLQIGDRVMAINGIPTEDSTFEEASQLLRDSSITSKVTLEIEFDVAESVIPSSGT", "assay": "holdup assay", "set-up": "key: below the threshold = too weak to quantify, mostly under pKd 3.1 to 4", "conditions": "plain residues with an end cap or a label only (N-terminal biotin on a linker: ado-ado)", "values": [{"binder": "QSLNRMEYIV", "note": "[JAG1, P78504]", "pKd": "below the threshold"}]}, {"molecular_target": "HTRA1, Q92743", "sequence (Q92743 360-477)": "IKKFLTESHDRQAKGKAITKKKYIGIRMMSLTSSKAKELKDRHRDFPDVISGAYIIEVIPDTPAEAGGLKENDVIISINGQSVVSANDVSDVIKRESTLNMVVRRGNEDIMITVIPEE", "assay": "holdup assay", "set-up": "key: below the threshold = too weak to quantify, mostly under pKd 3.1 to 4", "conditions": "plain residues with an end cap or a label only (N-terminal biotin on a linker: ado-ado)", "values": [{"binder": "QSLNRMEYIV", "note": "[JAG1, P78504]", "pKd": 5.37}]}, {"molecular_target": "T6, HTRA3, P83110", "T6 sequence (P83110 354-453, limits assumed, looked up)": "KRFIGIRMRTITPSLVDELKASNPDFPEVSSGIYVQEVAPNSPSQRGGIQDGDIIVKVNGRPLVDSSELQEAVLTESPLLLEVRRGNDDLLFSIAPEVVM", "assay": "holdup assay", "set-up": "key: below the threshold = too weak to quantify, mostly under pKd 3.1 to 4", "conditions": "plain residues with an end cap or a label only (N-terminal biotin on a linker: ado-ado)", "values": [{"binder": "QSLNRMEYIV", "note": "[JAG1, P78504]", "pKd": 3.87}]}, {"molecular_target": "IL16_1, Q14005", "sequence (Q14005 210-306)": "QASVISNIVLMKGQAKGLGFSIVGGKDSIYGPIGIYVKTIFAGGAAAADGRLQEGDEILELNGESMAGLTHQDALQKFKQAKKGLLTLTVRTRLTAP", "assay": "holdup assay", "set-up": "key: below the threshold = too weak to quantify, mostly under pKd 3.1 to 4", "conditions": "plain residues with an end cap or a label only (N-terminal biotin on a linker: ado-ado)", "values": [{"binder": "QSLNRMEYIV", "note": "[JAG1, P78504]", "pKd": 3.91}]}, {"molecular_target": "Inadl_10, Q8NI35", "sequence (Q8NI35 1673-1763)": "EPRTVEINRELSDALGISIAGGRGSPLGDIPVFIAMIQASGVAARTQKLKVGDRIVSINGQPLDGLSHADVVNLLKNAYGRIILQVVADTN", "assay": "holdup assay", "set-up": "key: below the threshold = too weak to quantify, mostly under pKd 3.1 to 4", "conditions": "plain residues with an end cap or a label only (N-terminal biotin on a linker: ado-ado)", "values": [{"binder": "QSLNRMEYIV", "note": "[JAG1, P78504]", "pKd": "below the threshold"}]}, {"molecular_target": "Inadl_5, Q8NI35", "sequence (Q8NI35 673-780)": "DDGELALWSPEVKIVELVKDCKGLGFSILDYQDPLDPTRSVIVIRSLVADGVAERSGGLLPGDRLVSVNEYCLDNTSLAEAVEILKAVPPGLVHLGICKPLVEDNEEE", "assay": "holdup assay", "set-up": "key: below the threshold = too weak to quantify, mostly under pKd 3.1 to 4", "conditions": "plain residues with an end cap or a label only (N-terminal biotin on a linker: ado-ado)", "values": [{"binder": "QSLNRMEYIV", "note": "[JAG1, P78504]", "pKd": 4.86}]}, {"molecular_target": "Inadl_9, Q8NI35", "sequence (Q8NI35 1530-1615)": "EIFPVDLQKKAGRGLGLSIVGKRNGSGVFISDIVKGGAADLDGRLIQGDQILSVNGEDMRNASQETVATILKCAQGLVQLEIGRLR", "assay": "holdup assay", "set-up": "key: below the threshold = too weak to quantify, mostly under pKd 3.1 to 4", "conditions": "plain residues with an end cap or a label only (N-terminal biotin on a linker: ado-ado)", "values": [{"binder": "QSLNRMEYIV", "note": "[JAG1, P78504]", "pKd": 3.65}]}, {"molecular_target": "LAP2, Q96RT1", "sequence (Q96RT1 other isoform, or with tags, fused parts or gaps)": "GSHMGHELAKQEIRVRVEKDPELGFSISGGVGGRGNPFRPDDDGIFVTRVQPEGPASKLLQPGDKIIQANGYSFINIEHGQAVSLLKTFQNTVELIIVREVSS", "assay": "holdup assay", "set-up": "key: below the threshold = too weak to quantify, mostly under pKd 3.1 to 4", "conditions": "plain residues with an end cap or a label only (N-terminal biotin on a linker: ado-ado)", "values": [{"binder": "QSLNRMEYIV", "note": "[JAG1, P78504]", "pKd": "below the threshold"}]}, {"molecular_target": "T7, LIN7B, Q9HAP6", "T7 sequence (Q9HAP6 88-185, limits assumed, looked up)": "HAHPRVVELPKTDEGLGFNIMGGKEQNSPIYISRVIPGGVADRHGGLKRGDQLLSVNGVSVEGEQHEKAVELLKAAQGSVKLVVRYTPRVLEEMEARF", "assay": "holdup assay", "set-up": "key: below the threshold = too weak to quantify, mostly under pKd 3.1 to 4", "conditions": "plain residues with an end cap or a label only (N-terminal biotin on a linker: ado-ado)", "values": [{"binder": "QSLNRMEYIV", "note": "[JAG1, P78504]", "pKd": "below the threshold"}]}, {"molecular_target": "T8, MPDZ_10, O75970", "T8 sequence (O75970 1624-1722, limits assumed, looked up)": "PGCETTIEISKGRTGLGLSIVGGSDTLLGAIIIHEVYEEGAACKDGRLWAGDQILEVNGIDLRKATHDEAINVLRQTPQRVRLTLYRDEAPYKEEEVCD", "assay": "holdup assay", "set-up": "key: below the threshold = too weak to quantify, mostly under pKd 3.1 to 4", "conditions": "plain residues with an end cap or a label only (N-terminal biotin on a linker: ado-ado)", "values": [{"binder": "QSLNRMEYIV", "note": "[JAG1, P78504]", "pKd": "below the threshold"}]}, {"molecular_target": "NHERF4_4, Q86UT5", "sequence (Q86UT5 464-550)": "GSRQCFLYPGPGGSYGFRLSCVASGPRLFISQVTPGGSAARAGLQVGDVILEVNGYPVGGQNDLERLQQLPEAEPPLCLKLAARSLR", "assay": "holdup assay", "set-up": "key: below the threshold = too weak to quantify, mostly under pKd 3.1 to 4", "conditions": "plain residues with an end cap or a label only (N-terminal biotin on a linker: ado-ado)", "values": [{"binder": "QSLNRMEYIV", "note": "[JAG1, P78504]", "pKd": "below the threshold"}]}, {"molecular_target": "NOS1, P29475", "sequence (P29475 9-101)": "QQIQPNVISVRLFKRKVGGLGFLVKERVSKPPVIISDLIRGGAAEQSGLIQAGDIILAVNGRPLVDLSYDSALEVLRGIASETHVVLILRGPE", "assay": "holdup assay", "set-up": "key: below the threshold = too weak to quantify, mostly under pKd 3.1 to 4", "conditions": "plain residues with an end cap or a label only (N-terminal biotin on a linker: ado-ado)", "values": [{"binder": "QSLNRMEYIV", "note": "[JAG1, P78504]", "pKd": 3.54}]}, {"molecular_target": "T9, PARD3B_1, Q8TEW8", "T9 sequence (Q8TEW8 196-299, limits assumed, looked up)": "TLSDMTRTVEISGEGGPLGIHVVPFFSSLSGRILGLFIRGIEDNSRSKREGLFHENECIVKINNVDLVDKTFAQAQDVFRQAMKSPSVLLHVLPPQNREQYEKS", "assay": "holdup assay", "set-up": "key: below the threshold = too weak to quantify, mostly under pKd 3.1 to 4", "conditions": "plain residues with an end cap or a label only (N-terminal biotin on a linker: ado-ado)", "values": [{"binder": "QSLNRMEYIV", "note": "[JAG1, P78504]", "pKd": 3.83}]}, {"molecular_target": "T10, PTPN13_1, Q12923", "T10 sequence (Q12923 1088-1188, limits assumed, looked up)": "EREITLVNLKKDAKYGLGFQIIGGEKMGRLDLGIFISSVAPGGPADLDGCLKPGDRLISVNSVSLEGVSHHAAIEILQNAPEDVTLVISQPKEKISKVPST", "assay": "holdup assay", "set-up": "key: below the threshold = too weak to quantify, mostly under pKd 3.1 to 4", "conditions": "plain residues with an end cap or a label only (N-terminal biotin on a linker: ado-ado)", "values": [{"binder": "QSLNRMEYIV", "note": "[JAG1, P78504]", "pKd": "below the threshold"}]}, {"molecular_target": "T11, RHPN1, Q8TCX5", "T11 sequence (Q8TCX5 508-602, limits assumed, looked up)": "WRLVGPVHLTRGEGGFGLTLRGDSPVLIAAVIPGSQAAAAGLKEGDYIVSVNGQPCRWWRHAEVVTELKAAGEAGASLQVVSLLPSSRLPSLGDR", "assay": "holdup assay", "set-up": "key: below the threshold = too weak to quantify, mostly under pKd 3.1 to 4", "conditions": "plain residues with an end cap or a label only (N-terminal biotin on a linker: ado-ado)", "values": [{"binder": "QSLNRMEYIV", "note": "[JAG1, P78504]", "pKd": "below the threshold"}]}, {"molecular_target": "T12, SYNJ2BP, P57105", "T12 sequence (P57105 8-110, limits assumed, looked up)": "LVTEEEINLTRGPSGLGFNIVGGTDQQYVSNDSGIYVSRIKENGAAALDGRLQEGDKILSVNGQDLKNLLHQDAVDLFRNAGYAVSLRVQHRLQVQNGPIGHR", "assay": "holdup assay", "set-up": "key: below the threshold = too weak to quantify, mostly under pKd 3.1 to 4", "conditions": "plain residues with an end cap or a label only (N-terminal biotin on a linker: ado-ado)", "values": [{"binder": "QSLNRMEYIV", "note": "[JAG1, P78504]", "pKd": "below the threshold"}]}, {"molecular_target": "TJP1_3, Q07157", "sequence (Q07157 416-512)": "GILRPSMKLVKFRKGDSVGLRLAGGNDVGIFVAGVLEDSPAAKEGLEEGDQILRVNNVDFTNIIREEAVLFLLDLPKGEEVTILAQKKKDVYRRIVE", "assay": "holdup assay", "set-up": "key: below the threshold = too weak to quantify, mostly under pKd 3.1 to 4", "conditions": "plain residues with an end cap or a label only (N-terminal biotin on a linker: ado-ado)", "values": [{"binder": "QSLNRMEYIV", "note": "[JAG1, P78504]", "pKd": "below the threshold"}]}, {"molecular_target": "TJP2_1, Q9UDY2", "sequence (Q9UDY2 24-128)": "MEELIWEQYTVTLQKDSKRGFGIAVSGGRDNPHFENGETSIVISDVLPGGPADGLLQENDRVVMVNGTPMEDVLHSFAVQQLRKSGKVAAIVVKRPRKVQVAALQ", "assay": "holdup assay", "set-up": "key: below the threshold = too weak to quantify, mostly under pKd 3.1 to 4", "conditions": "plain residues with an end cap or a label only (N-terminal biotin on a linker: ado-ado)", "values": [{"binder": "QSLNRMEYIV", "note": "[JAG1, P78504]", "pKd": "below the threshold"}]}]}
